± gives the standard deviation of the averaged measurements.
B1: library; a variant is named by its letters at N, in order (parent)
chain: GCUGUCACCGGUGUAUUACCCUAGUGGUCGACCGGUCUGAUGAGUCUNNNNNNAGACGAAACAGC

Legend:
hypoxanthine [1] = variants of: B1; assay: normalized RNA/DNA level with ligand (relative to sTRSVctl = 100) (log10 (% of sTRSVctl)); ligand: hypoxanthine (xanthine aptamer); higher = less ribozyme self-cleavage, higher mRNA level; settings: ligand concentration (+) RNA-Seq: 5 mM, HEK293T, reporter: mCherry (pCS4076), ligand present: yes
Summary of the method: (§1)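 Ribozyme switch library plasmids linked to reporters were introduced into HEK293T cells at 4 µg per 6-well well, with ligand, if any, added 1 h before. Total RNA was extracted with EDTA 72 h later, reverse-transcribed, amplified, barcoded and sequenced. RNA level was computed from RNA over DNA reads relative to a spiked-in non-cleaving sequence or the top sequences, then scaled and log-transformed. The top set was 25 sequences, values were ×100 and log10, and the cutoff was ≥100 DNA reads.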

hypoxanthine [2] = variants of: B1; assay: normalized RNA/DNA level without ligand (relative to sTRSVctl = 100) (log10 (% of sTRSVctl)); ligand: hypoxanthine (xanthine aptamer); higher = less ribozyme self-cleavage, higher mRNA level; settings: HEK293T, reporter: mCherry (pCS4076), ligand present: no
Summary of the method: as §1

Row | Variant | normalized RNA/DNA level with ligand (log10) (hypoxanthine [1]) | normalized RNA/DNA level without ligand (log10) (hypoxanthine [2])
1 | CCCAUG | 1.933 ± 0.0045 | 1.81 ± 0.048
2 | ACCAUG | 1.91 ± 0.02 | 1.571 ± 0.013
3 | CCCAUU | 2 ± 0.03 | 1.927 ± 0.0023
4 | GCCAUU | 1.96 ± 0.013 | 1.918 ± 0.01
5 | UCCAUU | 1.959 ± 0.0064 | 1.89 ± 0.05
6 | GCCCAA | 1.94 ± 0.037 | 1.8 ± 0.021
7 | ACCCAA | 1.896 ± 0.013 | 1.801 ± 0.013
8 | UCCCAA | 1.918 ± 0.011 | 1.765 ± 0.0033
9 | CCCCAC | 1.987 ± 0.018 | 1.9 ± 0.073
10 | GCCCAC | 1.92 ± 0.023 | 1.76 ± 0.028
11 | ACCCAC | 1.921 ± 0.0048 | 1.792 ± 0.0063
12 | CCCCAG | 1.84 ± 0.062 | 1.77 ± 0.047
13 | ACCCAG | 1.83 ± 0.03 | 1.48 ± 0.044
14 | CCCCAU | 1.93 ± 0.036 | 1.87 ± 0.046
15 | GCCCAU | 1.929 ± 0.0057 | 1.866 ± 0.00087
16 | UCCCAU | 1.93 ± 0.032 | 1.829 ± 0.0082
17 | ACCCAU | 1.93 ± 0.026 | 1.79 ± 0.051
18 | CCCCCA | 1.94 ± 0.029 | 1.889 ± 0.0072
19 | GCCCCA | 1.965 ± 0.0094 | 1.85 ± 0.05
20 | ACCCCA | 1.96 ± 0.031 | 1.86 ± 0.062

Row | Variant | normalized RNA/DNA level with ligand (log10) (hypoxanthine [1]) | normalized RNA/DNA level without ligand (log10) (hypoxanthine [2])
21 | GCCCCC | 1.95 ± 0.033 | 1.83 ± 0.078
22 | UCCCCC | 1.9 ± 0.075 | 1.782 ± 0.016
23 | ACCCCC | 1.99 ± 0.16 | 1.879 ± 0.013
24 | CCCCCG | 1.92 ± 0.064 | 1.93 ± 0.044
25 | GCCCCG | 1.92 ± 0.05 | 1.52 ± 0.021
26 | UCCCCG | 1.88 ± 0.025 | 1.5 ± 0.024
27 | ACCCCG | 1.86 ± 0.032 | 1.45 ± 0.063
28 | CCCCCU | 2.01 ± 0.038 | 1.976 ± 0.014
29 | GCCCCU | 1.93 ± 0.029 | 1.933 ± 0.0028
30 | UCCCCU | 1.996 ± 0.014 | 1.9 ± 0.023
31 | ACCCCU | 1.967 ± 0.0051 | 1.892 ± 0.0077
32 | CCCCGA | 1.95 ± 0.059 | 1.81 ± 0.025
33 | GCCCGA | 2.012 ± 0.015 | 1.719 ± 0.0081
34 | UCCCGA | 1.956 ± 0.0054 | 1.8 ± 0.031
35 | ACCCGA | 1.95 ± 0.028 | 1.755 ± 0.0068
36 | CCCCGC | 1.986 ± 0.019 | 1.9 ± 0.047
37 | UCCCGC | 1.924 ± 0.018 | 1.51 ± 0.017
38 | ACCCGC | 1.91 ± 0.02 | 1.815 ± 0.016
39 | CCCCGG | 1.985 ± 0.0052 | 1.97 ± 0.035
40 | UCCCGG | 1.95 ± 0.11 | 1.668 ± 0.0066

Row | Variant | normalized RNA/DNA level with ligand (log10) (hypoxanthine [1]) | normalized RNA/DNA level without ligand (log10) (hypoxanthine [2])
41 | CCCCGU | 1.94 ± 0.022 | 1.92 ± 0.055
42 | GCCCGU | 1.962 ± 0.019 | 1.83 ± 0.044
43 | ACCCGU | 1.94 ± 0.024 | 1.82 ± 0.048
44 | CCCCUA | 1.98 ± 0.061 | 1.855 ± 0.0056
45 | GCCCUA | 1.97 ± 0.052 | 1.8733 ± 0.00068
46 | UCCCUA | 1.92 ± 0.033 | 1.79 ± 0.043
47 | ACCCUA | 1.937 ± 0.014 | 1.85 ± 0.047
48 | GCCCUC | 1.97 ± 0.035 | 1.88 ± 0.058
49 | UCCCUC | 1.98 ± 0.03 | 1.66 ± 0.14
50 | ACCCUC | 1.936 ± 0.0052 | 1.895 ± 0.00022
51 | CCCCUG | 1.927 ± 0.0039 | 1.81 ± 0.04
52 | CCCCUU | 2 ± 0.045 | 1.913 ± 0.014
53 | UCCCUU | 1.92 ± 0.051 | 1.781 ± 0.017
54 | ACCCUU | 1.974 ± 0.013 | 1.92 ± 0.06
55 | CCCGAA | 1.9 ± 0.085 | 1.76 ± 0.033
56 | UCCGAA | 1.94 ± 0.0047 | 1.631 ± 0.0036
57 | ACCGAA | 1.897 ± 0.018 | 1.74 ± 0.045
58 | CCCGAC | 1.959 ± 0.0051 | 1.84 ± 0.033
